The source of these data is paper PMC9020658, “Mechanism of RNA polymerase I selection by transcription factor UAF”.

Series [1] addresses T1, UAF (Rrn5-Rrn9-Rrn10-Uaf30-H3-H4) (Saccharomyces cerevisiae? (budding …, UniProt Q02983;P53437;P38204;Q08747;P61830;P02309 1-363;1-365;1-145;1-228;1-136;1-103)). The series can be described thus: filter binding; two repeats; text assigns tight Kd to -110/-40, fig. S7 legend order of the DNAs appears swapped; 30 mM Hepes-NaOH pH 7.5, 30 mM sodium citrate pH 6.0, 250 mM KCl, 2 mM DTT; filter binding 1 h at 4 C; footprinting on ice, then 2.5 mM MgCl2, 0.5 mM CaCl2, DNa.

Series [2] deals with T1, UAF (Rrn5-Rrn9-Rrn10-Uaf30-H3-H4). The series can be described thus: filter binding; fitted Kd only in figure; legend order of the DNAs appears swapped; 30 mM Hepes-NaOH pH 7.5, 30 mM sodium citrate pH 6.0, 250 mM KCl, 2 mM DTT; filter binding 1 h at 4 C; footprinting on ice, then 2.5 mM MgCl2, 0.5 mM CaCl2, DNa.

B1: DNA-110/-40 (downstream) (dsDNA)
DNA 1: AGAGCGACAGAGAGGGCAAAAGAAAATAAAAGTAAGATTTTAGTTTGTAATGGGAGGGGGGGTTTAGTCAT
DNA 2: ATGACTAAACCCCCCCTCCCATTACAAACTAAAATCTTACTTTTATTTTCTTTTGCCCTCTCTGTCGCTCT
On to B1, for which, in series [1], the Kd amounted to 20.4 nM.

B2: DNA-180/-110 (upstream) (dsDNA)
DNA 1: ATATACGCTAAGATTTTTGGAGAATAGCTTAAATTGAAGTTTTTCTCGGCGAGAAATACGTAGTTAAGGCA
DNA 2: TGCCTTAACTACGTATTTCTCGCCGAGAAAAACTTCAATTTAAGCTATTCTCCAAAAATCTTAGCGTATAT
Take B2: the “fold decrease in affinity” value in series [2] is ~5 fold lower affinity than DNA-110/-40.

A word on the Kd: it is the concentration at which binding is half-saturated.
